The text below walks through data of US20200079847A1 (H LUNDBECK A S, published 2020).

Experiment [1] deals with T1, Pituitary Adenylate Cyclase-Activating Polypeptide 27 (PACAP27) (Homo sapiens, C-terminal leucine is amidated).
T1 peptide: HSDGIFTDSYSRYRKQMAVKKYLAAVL
The experiment in a line: SPR, antibody immobilized. Here is the method: (§1) Binding affinities of monoclonal antibodies for human PACAP were estimated using SPR on the PROTEON™ XPR36 (Bio-Rad, Hercules, Calif.). Antibody was immobilized to the surface of general amine coupling (“GLC” or “GLM”) Chips (Bio-Rad, Hercules, Calif.). […] Antigen (ranging from 1.23 nM to 100 nM) was typically run sequentially with association times of 2-4 minutes and dissociation times of 3-120 minutes grouped with the PROTEON™ Manager Software (v3.1.0.6 (Bio-Rad, Hercules, Calif.)) and fitted using a 1:1 Langmuir binding model.
Background: SPR reads the build-up and loss of mass on a sensor chip optically.

Experiment [2] addresses T2, Pituitary Adenylate Cyclase-Activating Polypeptide 38 (PACAP38) (Homo sapiens, C-terminal lysine is amidated).
T2 construct: unlabeled peptide in SPR; also called human PACAP; huPACAP (1-38)
T2 peptide: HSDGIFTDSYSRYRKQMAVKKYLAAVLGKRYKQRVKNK
The experiment in a line: DELFIA TRF cell-surface binding: antibody pre-incubated with PACAP38, complex added to PAC1-R-expressing PC-12 cells, Eu anti-human IgG detection; PACAP38 held on the cell surface is the target.

Experiment [3] concerns the target T2, Pituitary Adenylate Cyclase-Activating …. Described as above.
In experiment [4] the target is T3, Vasoactive Intestinal Peptide (VIP) (human).
T3 construct: also called human VIP
T3 peptide: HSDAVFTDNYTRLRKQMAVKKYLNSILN
The experiment in a line: competitive HTRF: unlabelled VIP (10x) against biotinylated PACAP38 (35 nM) for the titrated antibody. Here is the method: In parallel, 10 μl of an antibody dilution series (highest final concentration of 100 nM) were incubated with 10 μl of N-terminal or C-terminal biotinylated PACAP38 (35 nM final) alone, or in combination with either PACAP27 (350 nM final) or VIP (350 nM final), i.e., 10× PACAP27 or 10×VIP, respectively, in a HTRF plate. 20 μl of Eu³⁺ cryptate labeled anti-hu Fc donor and 20 μl of d2-labeled streptavidin acceptor were added to each well and incubated for 1 hour at room temperature. Fluorescence was measured at 620 and 665 nm with a delay of […].

For experiment [5], the target named is T2, Pituitary Adenylate Cyclase-Activating …. The experiment in a line: cell-based or functional assay.
The target of experiment [6] is T1, Pituitary Adenylate Cyclase-Activating …. The experiment in a line: cell-based or functional assay.
For experiment [7], the target named is T2, Pituitary Adenylate Cyclase-Activating …. The experiment in a line: cell-based or functional assay.
For experiment [8] the target is unchanged. The experiment in a line: cell-based or functional assay.
The target is the same in experiment [9]. The experiment in a line: DELFIA TRF cell-surface binding: antibody pre-incubated with PACAP38, complex added to PAC1-R-expressing PC-12 cells, Eu anti-human IgG detection; PACAP38 held on the cell surface is the target.
For experiment [10] the target is unchanged. The experiment in a line: SPR, antibody immobilized. Here is the method: as §1
Experiment [11] has the same target. Put plainly: DELFIA TRF cell-surface binding: antibody pre-incubated with PACAP38, complex added to PAC1-R-expressing PC-12 cells, Eu anti-human IgG detection; PACAP38 held on the cell surface is the target.

Where two headings read alike, the source gives them in different places.

B1: Ab1 (antibody, human IgG1, kappa, N297A, V domains shown)
VH: QSVEESGGRLVTPGTPLTLTCTVSGFSLSSAVMNWVRQAPGKGLEWIGSIVASGTTYYASWANGRFTISKTSSTTMDLKMTSPTTEDTATYFCARGGGEFFIWGPGTLVTVSS
VL: DPVMTQTPSSTSAAVGGTVTISCQSSESVYSNYLSWYQQKPGQPPNFLIYQASNLASGVPSRFKGSGSGTQFTLTITDLECDDAATYYCAGGYSENIVGFGGGTEVVVKR
notes: full-length antibody, rabbit variable regions on human constant regions
By Kd is commonly meant a measure of binding affinity in units of concentration. Molecule B1 showed a Kd in experiment [1] not above 0.01 nM.

B2: Ab4.H (antibody, V domains shown)
VH: EVQLVESGGGLVQPGGSLRLSCAASGFSLSSYDMSWVRQAPGKGLEWIGIINTNDDTWYASWVKGRFTISRDNSKNTLYLQMNSLRAEDTAVYYCARISDAYVFDYAYYFTLWGQGTLVTVSS
VL: DIQMTQSPSTLSASVGDRVTITCLASQNIYNSLAWYQQKPGKAPKLLIYRASTLASGVPSRFSGSGSGTEFTLTISSLQPDDFATYYCQQGAGADNIGNPFGGGTKVEIKR
Usually EC50 (read off the curve) stands for the concentration needed to bring the measured effect to its halfway point. One may read the koff as the rate constant with which the complex falls apart. A lower koff goes with a long-lived complex. In the case of B2, the “EC50 (read off the curve)” value in experiment [2] was approximately 4 nM. Besides, in experiment [1], binding was characterised by a dissociation constant (Kd) of 0.031 nM and the koff came out at 1e-05 s⁻¹.

B3: Ab5.H (antibody, V domains shown)
VH: EVQLVESGGGLVQPGGSLRLSCAASGFSLSSYAMIWVRQAPGKGLEWVGIIYDNGDTYYASSAKGRFTISRDNSKNTVYLQMNSLRAEDTAVYFCAREPGSTTQNDLWGQGTLVTVSS
VL: DVQMTQSPSTLSASVGDRVTITCQASENIYNSLLWYQQKPGKAPKLLIYRASTLASGVPSRFSGSGSGTEFTLTISSLQPDDFATYYCQNYYNIWTNGAAFGGGTKVEIKR
Turning to B3, the “EC50 (read off the curve)” value in experiment [3] is approximately 3 nM.

B4: Ab9 (antibody, human IgG1, kappa, N297A, V domains shown)
VH: EQSGGGAEGGLVKPGGSLKLSCKASGFTISRDYWICWVRQAPGKGLEWIGCISAGGGSTDYANWVNGRFTLSRDIDQSTGCLQLNSLTDADTAMYYCAGNLEIWGQGTLVTVSS
VL: AQVLTQTPSSVSAAVGGTVTINCQSSPSIYSGAFLSWFQQKPGQPPKFLIYEASKLASGVPSRFSGSGSGTQFTLTISDVQCDDAATYYCLGFYDCSSVDCHAFGGGTEVVVKR
notes: as for B1
On to B4, for which, in experiment [4], the binding result is on record as “no binding”.

B5: Ab10.H (antibody, V domains shown)
VH: EVQLVESGGGLVQPGGSLRLSCAASGIDLNSYYMTWVRQAPGKGLEWIGFIDAGGDAYYASWAKGRFTISRDNSKNTVYLQMNSLRAEDTAVYFCARDLDLWGQGTLVTVSS
VL: DAQLTQSPSTLSASVGDRVTITCQSSESVYGNYLAWFQQKPGKAPKFLIYEASKLESGVPSRFSGSGSGTEFTLTISSLQPDDFATYYCAGGDISEGVAFGGGTKVEIKR
As for B5, in [5], the “IC50, 0.1 nM PACAP38-induced PAC1-R mediated cAMP increase” value was found to be 0.163 nM. For the same molecule, the “IC50, 0.1 nM PACAP27-induced PAC1-R mediated cAMP increase” value in [6] stood at 0.084 nM. Also, the “IC50, 1 nM PACAP38-induced human VPAC2-R mediated cAMP increase” value in experiment [7] stood at 0.988 nM. Besides, the “IC50, 5 nM PACAP38-induced human VPAC1-R mediated cAMP increase” value in experiment [8] was found to be 1.34 nM.

B6: Ab3 (antibody, human IgG1, kappa, N297A, V domains shown)
VH: QEQLVESGGGLVQPEGSLTLTCTASGFSFSSSDYMCWVRQAPGKGLEWIGCIDAGSSGDTYFASWAKGRFTISKTSSTTVTLQMTSLTAADTATYFCARHLYGSITFAFGLWGQGTLVTVSS
VL: AAVLTQTPSPVSAAVGGTVTINCQASQSIGSDLAWYQQKPGQPPKLLIYDASTLASGVPSRFSGSGSGTQFTLTISGVQCDDAATYYCQGTYYSSGWYTAFGGGTEVVVKR
notes: as for B1
In the case of B6, the binding result in [4] is reported as “no binding”.

B7: Ab3.H (antibody, V domains shown)
VH: EVQLVESGGGLVQPGGSLRLSCAASGFSFSSSDYMCWVRQAPGKGLEWIGCIDAGSSGDTYFASSAKGRFTISRDNSKNTVYLQMNSLRAEDTAVYFCARHLYGSITFAFGLWGQGTLVTVSS
VL: AAQMTQSPSTLSASVGDRVTITCQASQSIGSDLAWYQQKPGKAPKLLIYDASTLASGVPSRFSGSGSGTEFTLTISSLQPDDFATYYCQGTYYSSGWYTAFGGGTKVEIKR
As for B7, in experiment [9], the “EC50 (read off the curve)” value was approximately 3 nM.

B8: Ab12.H (antibody, V domains shown)
VH: EVQLVESGGGLVQPGGSLRLSCAASGFSLSSYAMGWVRQAPGKGLEWIGDISTYGTTDYASWVYGRFTISRDNSKNTVYLQMNSLRAEDTAVYFCARDYWLSLWGQGTLVTVSS
VL: AAQLTQSPSTLSASVGDRVTITCQSSQSVYDNNALAWYQQKPGKAPKLLIYAASTLASGVPSRFSGSGSGTEFTLTISSLQPDDFATYYCLGGYYDPADNAFGGGTKVEIKR
In experiment [10], B8 came in with a Kd of 0.026 nM and a koff of 1e-05 s⁻¹. The “EC50 (read off the curve)” value in experiment [11] is approximately 3 nM.
